Reference: PMC7782513, “Structural basis for nuclear import selectivity of pioneer transcription factor SOX2” (Nature Communications, 2021)

B1: His-tagged SOX2 R57A (domain or fragment)
chain: not shown
notes: SOX2 HMG domain, human, residues 39-127 of UniProtKB P48431, with R57A; source: E. coli, recombinant, purified; not shown: His6, N-terminal, kept
B2: His-tagged SOX2 R98A (domain or fragment)
chain: not shown
notes: SOX2 HMG domain, human, residues 39-127 of UniProtKB P48431, with R98A; source: E. coli, recombinant, purified; not shown: His6, N-terminal, kept
B3: His-tagged SOX2 R113A (domain or fragment)
chain: not shown
notes: SOX2 HMG domain, human, residues 39-127 of UniProtKB P48431, with R113A; source: E. coli, recombinant, purified; not shown: His6, N-terminal, kept
B4: His-tagged SOX2 R114A (domain or fragment)
chain: not shown
notes: SOX2 HMG domain, human, residues 39-127 of UniProtKB P48431, with R114A; source: E. coli, recombinant, purified; not shown: His6, N-terminal, kept
B5: His-tagged SOX2 T116E (to mimic phosphorylation) (domain or fragment)
chain: not shown
notes: SOX2 HMG domain, human, residues 39-127 of UniProtKB P48431, with T116E; source: E. coli, recombinant, purified; not shown: His6, N-terminal, kept
B6: His-tagged SOX2 K117A (domain or fragment)
chain: not shown
notes: SOX2 HMG domain, human, residues 39-127 of UniProtKB P48431, with K117A; source: E. coli, recombinant, purified; not shown: His6, N-terminal, kept
B7: His-tagged SOX2 HMG domain (residues 39-127), wild type (domain or fragment)
chain: not shown
notes: SOX2 HMG domain, human, residues 39-127 of UniProtKB P48431; pET30a+ construct with a TEV site (ENLYFQS) between tag and SOX2; in MST the labelled SOX2 carries the RED-tris-NTA dye of the his-tag labelling kit; also called SOX2 WT; source: E. coli BL21 (DE3) pLysS, purified (HisTrap, SEC); not shown: His6, N-terminal, kept
B8: His-tagged SOX2 K42A (domain or fragment)
chain: not shown
notes: SOX2 HMG domain, human, residues 39-127 of UniProtKB P48431, with K42A; source: E. coli, recombinant, purified; not shown: His6, N-terminal, kept
B9: His-tagged SOX2 R43A (domain or fragment)
chain: not shown
notes: SOX2 HMG domain, human, residues 39-127 of UniProtKB P48431, with R43A; also called R43A-SOX2; source: E. coli, recombinant, purified; not shown: His6, N-terminal, kept
B10: His-tagged SOX2 K115A (domain or fragment)
chain: not shown
notes: SOX2 HMG domain, human, residues 39-127 of UniProtKB P48431, with K115A; source: E. coli, recombinant, purified; not shown: His6, N-terminal, kept
B11: His-tagged SOX2 R40A (domain or fragment)
chain: not shown
notes: SOX2 HMG domain, human, residues 39-127 of UniProtKB P48431, with R40A; source: E. coli, recombinant, purified; not shown: His6, N-terminal, kept
B12: His-tagged SOX2 R56A (domain or fragment)
chain: not shown
notes: SOX2 HMG domain, human, residues 39-127 of UniProtKB P48431, with R56A; source: E. coli, recombinant, purified; not shown: His6, N-terminal, kept

Experiments:
Details in all cases: both partners purified
[1] = molecular target: T1, IMPα3 lacking the IMPβ-binding domain (residues 64-521) (human, UniProt O00629 64-521); assay: pull-down; 10 µM His-tagged SOX2 or mutant immobilised on Ni-NTA resin, 20 µM IMPα in 300 µL; washed three times with 50 mM phosphate pH 8.0, 300 mM NaCl, 20 mM imidazole; eluted through TEV cleavage; SDS-PAGE
T1 sequence (looked up): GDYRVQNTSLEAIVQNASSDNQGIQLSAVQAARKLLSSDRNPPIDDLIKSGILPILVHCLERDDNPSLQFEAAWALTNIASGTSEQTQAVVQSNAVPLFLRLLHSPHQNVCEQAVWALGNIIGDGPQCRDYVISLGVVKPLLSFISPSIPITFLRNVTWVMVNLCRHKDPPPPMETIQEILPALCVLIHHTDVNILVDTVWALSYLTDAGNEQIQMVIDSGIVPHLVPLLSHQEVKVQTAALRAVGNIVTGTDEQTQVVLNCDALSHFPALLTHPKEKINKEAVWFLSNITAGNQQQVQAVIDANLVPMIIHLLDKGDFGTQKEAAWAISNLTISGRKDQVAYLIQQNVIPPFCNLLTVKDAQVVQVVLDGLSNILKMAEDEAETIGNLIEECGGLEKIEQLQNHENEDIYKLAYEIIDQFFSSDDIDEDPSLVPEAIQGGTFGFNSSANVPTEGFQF

[2] = molecular target: IMPα5 lacking the IMPβ-binding domain (residues 73-538) (human, UniProt P52294 73-538); assay: MST; labelled SOX2 at 50 nM (his-tag labelling kit RED-tris-NTA), unlabelled importins titrated; 20 mM HEPES, 150 mM NaCl, pH 8.0; 25 °C; single binding model
Chain of IMPα5 lacking the IMPβ-binding domain (residues 73-538) (P52294 73-538): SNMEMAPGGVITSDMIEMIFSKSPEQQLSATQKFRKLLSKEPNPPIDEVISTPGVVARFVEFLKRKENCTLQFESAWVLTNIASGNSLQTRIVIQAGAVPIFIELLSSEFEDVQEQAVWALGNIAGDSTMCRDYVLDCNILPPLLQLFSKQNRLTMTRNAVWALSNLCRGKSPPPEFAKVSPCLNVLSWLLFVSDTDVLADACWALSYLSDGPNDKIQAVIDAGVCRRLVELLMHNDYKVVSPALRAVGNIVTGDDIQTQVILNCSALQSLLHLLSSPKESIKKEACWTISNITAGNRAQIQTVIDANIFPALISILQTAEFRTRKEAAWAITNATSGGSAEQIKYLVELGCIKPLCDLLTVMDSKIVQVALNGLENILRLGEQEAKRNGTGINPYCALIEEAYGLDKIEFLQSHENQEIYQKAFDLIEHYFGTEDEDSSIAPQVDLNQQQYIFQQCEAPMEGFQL

[3] = molecular target: T1, IMPα3 lacking the IMPβ-binding domain …; assay: as above
[4] = molecular target: IMPα2 lacking the IMPβ-binding domain (residues 70-529) (UniProt P52293 70-529); assay: as above
[5] = molecular target: IMPα1 lacking the IMPβ-binding domain (residues 70-529) (human, UniProt P52292 70-529); assay: as above

| Binder | binding result [1] | further results |
| --- | --- | --- |
| B1 | binds |  |
| B2 | binds |  |
| B3 | binds |  |
| B4 | binds |  |
| B5 | binds |  |
| B6 | binds |  |
| B7 |  | Kd [2]: 247 nM; Kd [3]: 102 nM; Kd [4]: 283 nM; Kd [5]: 447 nM |
| B8 | binds |  |
| B9 | binds |  |
| B10 | binds |  |
| B11 | binds |  |
| B12 | binds |  |
